How the values were obtained:
[1] = tested on: MDA-MB-231 tumor xenografts; assay: Chorioallantoic membrane (CAM) xenograft assay, MDA-MB-231; format: in vivo, chick embryo; conditions: NHE6^527-588-overexpressing MDA-MB-231 xenografts on CAM, 1 μM Dox
Protocol: (§1) Fertilized eggs from white leghorn chicken were obtained from Public Health Agency of Canada (Nepean, ON). Ethics approval was obtained from the Ethics Committee on Animal Research of the University of Sherbrooke and all experimental procedures involving embryos were conducted in accordance with the regulations of the Canadian Council on Animal Care. Eggs were incubated in an Ova-Easy egg incubator (Brinsea) at 37° C. with 60% humidity. At Day 3, eggs were cracked as described^67. At Day 9, HT-1080 and MDA-MB-231 cell suspensions (1×10^6 and 2×10^6 cells, respectively) were mixed (1:1) with growth factor reduced Matrigel (BD Biosciences) in a total volume of 20 μl. Cell grafts were placed on top of the CAM and eggs were returned to the incubator for 96 h until Day 13 (n>6 chick embryos per cell line). When mentioned, 50 μl of Dox were added topically to the formed tumors (Day 13 after tumor cell grafting). At Day 16, chick embryos were euthanatized by decapitation. Tumors were removed and tumor volumes were calculated using the formula: (Dd^2/3). For RNA quantification, tumors were immediately snap-frozen in liquid nitrogen and kept at −80° C. until RNA extraction using the Trizol reagent.
(§2) To determine whether these observations were of relevance to tumor therapy in vivo, the inventors used an ex ovo chorioallantoic membrane (CAM) xenograft model in live chicken embryos^40. MDA-MB-231 or HT-1080 cells, or cells expressing either the NHE6^527-588 competing fragment or its scrambled counterpart were inoculated onto the CAM of 9-day-old chick embryos. After allowing 3 days for cells to engraft, tumors were treated with Doxorubicin or PBS. Four days later, chick embryos were euthanized, and tumors were removed for analysis (FIG. 10A). To first ascertain that tumors implanted in CAM developed hypoxia, total mRNA was extracted from tumors generated by untransfected HT-1080 cells and gene expression of the hypoxic markers CA9, GLUT1 and MCT4 was measured by qPCR. […]

[2] = tested on: HT-1080 cells; assay: Intracellular pH measurement (HPTS/SNARF-1) by confocal microscopy, HT-1080; format: cell-based, human; conditions: HT-1080, expression of the peptide, 1% O2, 4 h
Protocol: The pH sensing ratiometric dyes SNARF-1 and HPTS (Life Technologies) were used simultaneously for pH measurement of both cytoplasmic (C-SNARF-1) and endosomal/lysosomal (HPTS) compartments as previously described^30. Briefly, cells were cultured in 35 mm petri dishes (BD Biosciences) and used at 50% confluence. For endocytic labeling, cells were incubated overnight with HPTS (1 mM), washed, followed by a 20-min incubation with SNARF-1 (5 μM) to label the cytoplasmic compartment. Living cells were analyzed using an Olympus Fluoview™ FV1000 confocal microscope. Fluorescence emissions of both pH-sensing probes were recorded and subsequently analyzed as described^30.

[3] = tested on: NHE6-RACK1 interaction; assay: Co-immunoprecipitation of NHE6 with RACK1 in HT-1080; format: cell-based, human; conditions: HT-1080, ectopic expression of the sequence, 1% O2, 4 h
Protocol: Cells were lysed on ice in NP-40-containing buffer (50 mM Tris-HCl pH 8.0, 150 mM NaCl, 1% NP-40, 5 mM EDTA, phosphatase and protease inhibitors). Cell lysates were centrifuged at 13,000 rpm at 4° C. and protein concentration determined using the BCA protein assay (Thermo Fisher Scientific). After a pre-clearing step with protein A/G-agarose beads (GE Healthcare), protein complexes were immunoprecipitated overnight at 4° C. Samples were incubated in SDS-loading buffer for 30 minutes at room temperature to avoid transmembrane protein aggregates upon heating in a boiling water bath. Proteins were separated by SDS-PAGE electrophoresis, transferred to a PVDF membrane and immunoblotting was performed as described, using anti-NHE6 (1:1000), anti-NHE9 (1:1000) anti-RACK1 (1:2000), anti-tubulin (1:5000), anti-actin (1:5000) anti-HA (1:1000), anti-PKC (1:200), anti-phospho PKC substrate (1:1000), anti-LAMP2 (1:200), anti-P-glycoprotein (1:200) and HRP-conjugated secondary antibodies (1/10 000)^66.

[4] = tested on: HT-1080 cells; assay: Intracellular localization of Dox by confocal live-cell imaging, HT-1080; format: cell-based, human; conditions: HT-1080, expression of the peptide, 1% O2, 4 h
Protocol: Cells were cultured in 25 mm-diameter glass coverslips (Thermo Fisher Scientific) and incubated under various conditions (as indicated in the FIG. legends). Cells were then incubated for 2 h in a medium containing Dox (2 μM). After the incubation period, cells were washed to remove excess Dox and left in drug-free media for 10 min. […] Coverslips were mounted on glass slides and placed on a 37° C. warmed stage of an Olympus Fluoview™ FV1000 (Olympus, Tokyo, Japan) confocal laser scanning microscope. Dox was excited with a green helium neon laser (543 nm) and emitted fluorescence intensity was measured. Images were acquired on the same day, typically from 10-20 cells of similar size from each experimental condition, using identical instrument settings.

[5] = tested on: HT-1080 overexpressing NHE6^527-588 peptide; assay: MTT cell viability assay in HT-1080 expressing NHE6^527-588 or scrambled peptide; format: cell-based, human; conditions: HT-1080, overexpression of the fragment
Protocol: peGFP-N3-NHE6 was generously provided by Hiroshi Kanazawa (Osaka University, Japan). pcDNA3-HA/NHE6 was constructed from peGFP-N3-NHE6. For this, the entire NHE6 coding sequence was excised with BamHI and EcoRI restriction enzymes and cloned in pcDNA3-HA vector. pcDNA3-HA/NHE6^527-588 was designed from pcDNA3-HA/NHE6 using the following primers: […]
HT-1080 cells were stably transfected with Polyethylenimine (PEI, MirusBio) and positive cells were selected with Geneticin™ (G418) at 400 μg/mL. In the case of MDA-MB-231 cells, plasmids were transfected using Lipofectamine™ 2000 ([…]) and G418 was added to cell cultures at a concentration of 2 mg/mL.
Cells (5×10^3) were cultured in 96-well plates and pre-incubated under 21% O2 or 1% O2 for 4 h following the addition of drugs for 72 h. Cell viability was measured using the 3-(4,5-dimethylthiazol-2-yl)-2,5-diphenyltetrazolium bromide (MTT) dye (Life Technologies) according to manufacturer's instructions. Because hypoxic conditions may affect the reduction of MTT to formazan, incubation of all cell cultures with MTT were performed under normoxic conditions. Each experiment was performed in triplicate and at least three independent experiments were performed. Log-scale dose-response data were plotted on a graph and a three-parameter non-linear regression was applied to determine IC50 values. For calculation of the IC50s, both normoxic and hypoxic drug-treated samples were normalized with their untreated counterpart.
The middle portion (position 527-588) of the NHE6 cytoplasmic tail has previously been reported to interact with RACK1^31. Stable HT-1080 cells expressing the NHE6^527-588 fragment or a scrambled counterpart were generated.

[6] = tested on: HT-1080 tumor xenografts; assay: Chorioallantoic membrane (CAM) xenograft assay, HT-1080; format: in vivo, chick embryo; conditions: NHE6^527-588-overexpressing HT-1080 xenografts on CAM, 0.5 μM Dox
Protocol: as §1, §2

[7] = tested on: NHE6; assay: NHE6 localization (cell-surface biotinylation, EEA1 immunofluorescence) in HT-1080; format: cell-based, human; conditions: HT-1080, expression of the peptide, 1% O2, 4 h
Protocol: Biotinylation steps were performed at […] Cells were grown on circular 15-mm diameter glass coverslips (Thermo Fisher Scientific) and incubated at 21% or 1% O2. Cells were then washed with PBS containing 1 mM CaCl2 and 0.5 mM MgCl2 (PBSCM) and incubated for 5 min with 0.3 mg/ml of EZ-Link Sulfo-NHS-SS-Biotin (Pierce) in PBSCM. Unreacted biotin was quenched using 100 mM glycine. Cells were fixed for 10 min at room temperature using 1% PFA in PBS. Prior to staining, cells were blocked with 5% of BSA for 1 h at room temperature. Biotinylated cells were stained with 5 μg/ml Streptavidin Texas Red (Invitrogen) for 1 h at 4° C. Coverslips were washed and mounted on a microscope slide using Vectashield mounting media (Vector labs).
Cultured cells were fixed with 1% PFA for 10 min at room temperature, permeabilized with saponin (0.05% in PBS) for 20 min, and blocked with 2% BSA in PBS for 30 min. Cells were then incubated with the appropriate primary and secondary antibodies as follows: anti-EEA1 (1/500), anti-Rab7 (1/500) and fluorophore-conjugated secondary antibodies (1/1000). Images were recorded using an Olympus Fluoview™ FV1000 confocal microscope using a 63× oil immersion objective.

B1: TKAESAWLFRMWYNFDHNYLKPLLTHSGPPLTTTLPACCGPIARCLTSPQAYENQEQLKDDD (protein)
chain: TKAESAWLFRMWYNFDHNYLKPLLTHSGPPLTTTLPACCGPIARCLTSPQAYENQEQLKDDD
notes: NHE6 cytoplasmic tail fragment 527-588, expressed in cells from a plasmid
tumor volume compared to xenografts overexpressing a control peptide [1]: small but significant decrease in tumor volume
hypoxia-induced intravesicular hyperacidification [2]: greatly impaired
hypoxia-induced interaction of NHE6 with RACK1 [3]: prevented
hypoxia-induced diminution in nuclear Dox and Dox accumulation within endosomes [4]: greatly impaired
increase in drug (Dox) sensitivity ([5]; hypoxia): 2.8 fold
sensitivity of the cells to Dox ([5]; normoxic conditions): did not change
tumor volume compared to xenografts overexpressing a control peptide [6]: small but significant decrease in tumor volume
hypoxia-induced NHE6 relocalization from endosomes to the plasma membrane [7]: greatly impaired
